Reference: patent US20240368303A1 (ZHEJIANG SHIMAI PHARMACEUTICAL, published 2024)

B1: 1A1 Fab (Fab, V domains shown)
VH: EVQLVQSGAEVKKPGASVKVSCKASGYTFTSYGISWVRQAPGQGLEWMGWISAYNGNTNYAQKLQGRVTMTTDTSTSTAYMELRSLRSDDTAVYYCARAGTPTQILRYFDWLSQPFDYWGQGTLVTVSS
VL: EIVLTQSPLSLPVTLGQPASISCRSSQSLVYSDGNTYLNWFHQRPGQSPRRLIYKVSNRDSGVPERFSGSGSGTDFTLKISRVEAEDVGVYYCMQSTHWPLTFGGGTKVEIK
notes: Human Fab from a phage library, kappa light chain, hexahistidine-tagged, made in E. coli HB2151, detected with anti-FLAG antibody; also called Fab clone 1A1; anti-GPC3 1A1 Fab
B2: 6A4 Fab (Fab, V domains shown)
VH: EVQLVQSGAEVKKPGASVKVSCKASGYTFTSYAMHWVRQAPGQRLEWMGWINAGNGNTKYSQKFQGRVTITRDTSTSTAYMELRSLRSDDTAVYYCARDPSHWGQGTLVTVSS
VL: not shown
notes: Human Fab from a phage library, kappa light chain, hexahistidine-tagged, made in E. coli HB2151, detected with anti-FLAG antibody; also called Fab clone 6A4
B3: anti-GPC3 1A1 mAb (antibody, human IgG1, kappa, V domains shown)
VH: B1 VH
VL: EIVLTQSPLSLPVTLGQPASISCRSSQSLVYSDGNTYLNWFHQRPGQSPRRLIYKVSNRDSGVPERFSGSGSGTDFTLKISRVEAEDVGVYYCMQSTHWPLTFGGGTKVEIKR
notes: Intact human IgG1 kappa, about 150 kDa on non-reducing SDS-PAGE
B4: anti-GPC3 6A4 mAb (antibody, V domains shown)
VH: B2 VH
VL: not shown
notes: Intact human IgG1 kappa

What was measured:
[1] = target: T1, recombinant human GPC3 (full-length extracellular domain) (human, UniProt P51654 25-559); assay: ELISA, GPC3 coated at 50 ng per well, anti-FLAG-HRP detection
T1 construct: extracellular domain; Bought protein coated on ELISA plates; also called human GPC3 protein
Procedure: The hexahistidine-tagged 1A1 Fab and 6A4 Fab were expressed in E. coli strain HB2151 and purified from the soluble fraction of periplasm by using the Ni-NTA resin. Then ELISA was performed by using standard protocols to measure binding affinity to recombinant human GPC3 (full-length extracellular domain). Briefly, the recombinant human GPC3 (ACROBiosystems) was coated on Corning EIA/RIA high-binding 96-well plates (Corning Inc.) at 50 ng per well overnight at 4° C. and blocked with 3% nonfat milk in PBS (pH7.4). Fivefold serially diluted antibodies were added and incubated at room temperature for 2 h. The plates were washed with PBS containing 0.05% Tween 20. Bound antibodies were detected by HRP-conjugated anti-FLAG tag antibody (Sino Biological). The assay was developed at room temperature with TMB substrate (Solarbio) and OD value was measured at 450 nm with a microplate reader.

[2] = target: T1, recombinant human GPC3 (full-length …); assay: ELISA, GPC3 coated, biotinylated antibody, streptavidin-HRP detection
Procedure: (§1) ELISA was performed according to standard protocols, to determine binding affinity of anti-GPC3 1A1 mAb to recombinant GPC3 from human, cynomolgus, and mouse and anti-GPC3 6A4 mAb to recombinant human GPC3. Briefly, recombinant GPC3 (AcroBiosystems) was coated on Corning EIA/RIA high-binding 96-well plates (Corning Inc.) at 50 ng per well overnight at 4° C. and blocked with 3% nonfat milk in PBS (pH7.4). Fivefold serially diluted biotinylated antibodies were added and incubated at room temperature for 2 h. The plates were washed with PBS containing 0.05% Tween 20. Bound antibodies were detected by HRP-conjugated streptavidin (Sino Biological). The assay was developed at room temperature with TMB substrate (Solarbio) and monitored at 450 nm with a microplate reader. The half-maximal binding (EC₅₀) was calculated by fitting the data to the Langmuir adsorption isotherm.

recombinant mouse GPC3 = target: T2, recombinant mouse GPC3 (mouse, UniProt Q8CFZ4 25-558, limits assumed); assay: as above
T2 construct: Bought protein; also called mouse GPC3 protein
Procedure: as §1

[3] = target: T3, recombinant cynomolgus GPC3 (cynomolgus, UniProt A0A2K5VK50 24-558); assay: as above
T3 construct: Bought protein; also called cynomolgus GPC3 protein
Procedure: as §1

T2 sequence (Q8CFZ4 25-558 limits assumed): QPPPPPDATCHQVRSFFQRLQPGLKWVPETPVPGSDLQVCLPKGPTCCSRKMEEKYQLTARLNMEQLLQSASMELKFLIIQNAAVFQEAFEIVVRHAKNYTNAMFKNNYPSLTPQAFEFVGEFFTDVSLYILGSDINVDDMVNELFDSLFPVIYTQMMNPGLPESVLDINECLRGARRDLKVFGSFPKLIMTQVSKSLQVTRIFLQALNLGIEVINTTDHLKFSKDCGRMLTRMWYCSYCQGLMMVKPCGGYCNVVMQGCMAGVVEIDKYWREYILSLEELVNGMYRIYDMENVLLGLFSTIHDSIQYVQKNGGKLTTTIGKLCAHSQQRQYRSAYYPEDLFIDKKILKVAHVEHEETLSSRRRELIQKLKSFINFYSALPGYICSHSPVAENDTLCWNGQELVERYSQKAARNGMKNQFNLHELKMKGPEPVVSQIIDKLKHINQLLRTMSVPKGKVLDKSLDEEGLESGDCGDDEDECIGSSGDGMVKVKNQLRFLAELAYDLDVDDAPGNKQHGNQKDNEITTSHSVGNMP

| Binder | EC50 [1] | EC50 [2] | EC50 (recombinant mouse GPC3) | EC50 [3] |
| --- | --- | --- | --- | --- |
| B1 | ~190 nM |  |  |  |
| B2 | ~234 nM |  |  |  |
| B3 |  | 0.6 nM | 1.12 nM | 0.58 nM |
| B4 |  | 4.5 nM |  |  |
